Measurements from publication PMC2976847 (Frontiers in bioscience : a journal and virtual library, 2008).
Several values for one entry are separate records, joined by “and”; a condition that tells them apart may be missing. Equal entries are not always repeated.

Target: the molecule itself
Assay: native gel or EMSA

B1: Stat5a (wild type), from Epo-stimulated 293T cells (natural protein)
chain: MAGWIQAQQLQGDALRQMQVLYGQHFPIEVRHYLAQWIESQPWDAIDLDNPQDRGQATQLLEGLVQELQKKAEHQVGEDGFLLKIKLGHYATQLQNTYDRCPMELVRCIRHILYNEQRLVREANNCSSPAGVLVDAMSQKHLQINQRFEELRLITQDTENELKKLQQTQEYFIIQYQESLRIQAQFAQLGQLNPQERMSRETALQQKQVSLETWLQREAQTLQQYRVELAEKHQKTLQLLRKQQTIILDDELIQWKRRQQLAGNGGPPEGSLDVLQSWCEKLAEIIWQNRQQIRRAEHLCQQLPIPGPVEEMLAEVNATITDIISALVTSTFIIEKQPPQVLKTQTKFAATVRLLVGGKLNVHMNPPQVKATIISEQQAKSLLKNENTRNECSGEILNNCCVMEYHQATGTLSAHFRNMSLKRIKRADRRGAESVTEEKFTVLFESQFSVGSNELVFQVKTLSLPVVVIVHGSQDHNATATVLWDNAFAEPGRVPFAVPDKVLWPQLCEALNMKFKAEVQSNRGLTKENLVFLAQKLFNISSNHLEDYNSMSVSWSQFNRENLPGWNYTFWQWFDGVMEVLKKHHKPHWNDGAILGFVNKQQAHDLLINKPDGTFLLRFSDSEIGGITIAWKFDSPDRNLWNLKPFTTRDFSIRSLADRLGDLNYLIYVFPDRPKDEVFAKYYTPVLAKAVDGYVKPQIKQVVPEFVNASTDAGASATYMDQAPSPVVCPQPHYNMYPPNPDPVLDQDGEFDLDESMDVARHVEELLRRPMDSLDARLSPPAGLFTSARSSLS
In the case of B1, the “stoichiometry N” value is reported as 4 and 2.
